We go through 15 sequences from the DeepSol protein solubility set.

The series in a line: soluble on expression in E. coli; label from the status in PepcDB or PDB records.
As for “MMTKNAYAFVVIEESVMVFKRTKDEGLMPIFEGFVPLKEGFLKSFKERCNLEFLENLDLLFLYDKPSAHEIFSLCKELKNSIWDRKLVVALVEALEGFKDWNLSLKIEDKRSNSLGNGTKKLLTNADLGSDYKTIVIDSMKTYHQSQQEKYKRERGETLEVRPTTPPSYGGGSIRISGDKKPDFDEENF”, the “soluble on expression in E. coli” value was “not soluble”.

On to “MKKGLKMRALERSDLRFIHELNNNRNIMAYWFEEPYESYDELEELYRKHIHDDAERRFVVEDADGILIGLVELIEINYIHRSAEFQII”, for which the “soluble on expression in E. coli” value was “not soluble”.

For “MSEMLNHVASCRLPTEWGVFTMHGFEEANGQEHVALTVGNFSDGNPVLTRIHSECLTGDALFSRKCDCGPQLEAAMRAVQTEGRGIIVYLRQEGRGIGLINKIRAYHLQDQGMDTVEANLALGLPVDARDFRLAQSIYEYLGIRSVKLLTNNPEKIQTLKDAGINVVERIPLHVGENLENKRYLQTKADKLGHLMSE”, the “soluble on expression in E. coli” value was “not soluble”.

“VQQLSLFGSIGDDGYDLLISTLTTISGNPPLLYNSLCTVWKPNPSYDVENVNSRNQLVEPNRIKLSKEVPFSYLIDETMMDKPLNFRILKSFTNDKIPLNYAMTRNILHNTVPQVTNFNSTNEDQNNSKHTEDTVNESRNSDDIIDVDMDASPAPSNESCSPWSLQISDIPAAGNNRSVSMQTIAETIILSSAGKNSSVSSLMNGLGYVFEFQYLTIGVKFFMKHGLILELQKIWQIEEAGNSQITSGGFLLKAYINVSRGTDIDRINYTETVLMNLKKELQGYIELSVPDRQSMDSRVAHGNILIAAALEHHHHHH”: the “soluble on expression in E. coli” value was “soluble”.

Turning to “MLSRLSSIFRYFGTTSTIATMSPKKVTIIGSGNWGSAIARIVGSTTKSFPDEFDPTVRMWVFEEIVNGEKLSEVINNRHENIKYLPGKVLPNNVVAVTDLVESCEGSNVLVFVVPHQFVKGICEKLVGKIPADTQAISLIKGVSTEKRGGLKLISEEIKEILKIEVSVLMGANLAPEVANDNFCEATIGCKRKAEDGPLLKKLFHTDNFRINVVEDAHTVELCGALKNVVACAAGFTDGLGYGDNTKAAVIRLGLMETTKFVEHYYPGSNLQTFFESCGIADLITTCYGGRNRKVCEAFVKTGKSMAEVEKELLNGQSAQGPLTAEEVYLMMHKTGLDAKFPLFTAVHKICAGEMKPAELVDCLRNHPEHM”, the “soluble on expression in E. coli” value is given as “not soluble”.

In the case of “MGSDKIHHHHHHMYNKFKLMAKIYLGPAGVPHSAKKKNTVEGIRTVKELGLNAMEVEFVQGVRMSKETAEETGQVARELGVRLSVHAPYFINLCSEEKEKIEASKQRILDTADRAELMGADAIAIHIAFYGKMTPEECYQNVKEGLEEVIDKAREMGIRNVKFGVETMAKETAFGTLDEVISISKELKGVIPYIDWAHTFARQGGEIDYGKIIDRLIKELGLTHINSHFESLVYRRGKYVDEHIPIDANAPPFEPLAKELLKRDISITLICESPELERDALKMKEVLERLGYRLE”, the “soluble on expression in E. coli” value is “not soluble”.

Turning to “MNKKVGESTLYEWLVSYQKLEQEIYYLDWELETYKKELERWCDPEDLGRYTLTKDSKASKLEDIIEDLEKRLAWKMNSIYDLRKLVYSFKGLDQKILVAKYIEGLSLKQIAGEFGHSYGYIRNKHNQILKKIEKSDNDVTIPIDKS”, the “soluble on expression in E. coli” value is recorded as “not soluble”.

“MPNRKVVKFFFDVISPYSYFGFEGITRHRSVWKTPIQMKPFFFAGVVRHTENPGLPLRIPIKEKYMHKDLLFSAQYWGIPFRLPKDYTNMMLNTSSIVPQRILVASQLRDNVLMEDVARGLWHRFYAYGKPIFTKSQVAEVLRDLHVKDVDELVMMSDSAEVKNILRENTDEAIGNGCFGAPWMHITDGHGKVLQTVFGSDRLPQVADFLAEPFKGPMREKKPNA”: the “soluble on expression in E. coli” value was “not soluble”.

On to “MGSDKIHHHHHHMENVPLLQVNKMSKAFSNQLVLKEVNLQVERGDIYALVGGNGAGKSTLMKILTGLYSYDDGEMYVKGTKQQFANPSEAHRKGIYLIPQEPLIFPHMTIEENICIGLTEKKKKLRVQIEQLINSLGWDIDLNELGGSLSIAQQQLVEIVRGLIREAEILILDEPTSTLTTHEIKSLFVLMKSLQEKGIGMIYITHRFPEIFEIANKVAILRDGMIVSQGDVCDYTYDMLMEGLLPKGYKQKEKIEVVQETARTKKILEVIDITSHAFKNISFTVHADEIVGVAGIIGSGRTELAEAIFGLKTIKSGSILLEGKSIDACSLHKRLEKGLVYVPEDRARNGIFSIASVKENIAAASLQQNNRFFINQEKESALVNSFIEQFRIVVQNMNEELVSLSGGNQQKVVLAKYLACNPKIIILDEPTRGIDAKARIEVYETIEKMKREGLAILLISSDVEEIVQLANRVYVMRNGRFVSYMEKEQLSVNEVTRLAYGGVAE”, for which the “soluble on expression in E. coli” value is “not soluble”.

“MSTDIDCIVIGAGVVGLAIARALAAGGHEVLVAEAAEGIGTGTSSRNSEVIHAGIYYPADSLKARLCVRGKHLLYEYCAARGVPHQRLGKLIVATSDAEASQLDSIARRAGANGVDDLQHIDGAAARRLEPALHCTAALVSPSTGIVDSHALMLAYQGDAENDGAQLVFHTPLIAGRVRPEGGFELDFGGAEPMTLSCRVLINAAGLHAPGLARRIEGIPRDSIPPEYLCKGSYFTLAGRAPFSRLIYPVPQHAGLGVHLTLDLGGQAKFGPDTEWIATEDYTLDPRRADVFYAAVRSYWPALPDGALAPGYTGIRPKISGPHEPAADFAISGPASHGVAGLVNLYGIESPGLTASLAIAEETLARLAALEHHHHHH”: the “soluble on expression in E. coli” value is recorded as “soluble”.

Take “MGSDKIHHHHHHMKVTVTTLELKDKITIASKALAKKSVKPILAGFLFEVKDGNFYICATDLETGVKATVNAAEISGEARFVVPGDVIQKMVKVLPDEITELSLEGDALVISSGSTVFRITTMPADEFPEITPAESGITFEVDTSLLEEMVEKVIFAAAKDEFMRNLNGVFWELHKNLLRLVASDGFRLALAEEQIENEEEASFLLSLKSMKEVQNVLDNTTEPTITVRYDGRRVSLSTNDVETVMRVVDAEFPDYKRVIPETFKTKVVVSRKELRESLKRVMVIASKGSESVKFEIEENVMRLVSKSPDYGEVVDEVEVQKEGEDLVIAFNPKFIEDVLKHIETEEIEMNFVDSTSPCQINPLDISGYLYIVMPIRLA”: the “soluble on expression in E. coli” value is recorded as “soluble”.

For the sequence “MSAETATIPEVSNQETKAEKVIADSLEAKKDESAAVEINGSSTHENGDTNIEKKTEEPVVEAKVSEEPATTSETPAAQVTESQKDEKTDDAPAEPAEVAVEAAKEEPVVEEKKEDAPEPVVTEEKKSEEAPAPEEKKSEEVVAAEEKKEPAAVVEEKKEVPETPVVEDKKEEAPASSEEKKDEPVVNTEEKKDAAEAPAADEESEAAEEKVAETTVAPVATPSGRGRGRGRGRPPGPNATPKAAASEKKRAAKPKAAVNPESIAASRPRRSTSNRIDYANSDTSTVLAEVDDEIPGKLFRGRKPPRGKITKYVSDSDGAPSDEDDVDFGKKKKGAPSTRGRGRPPSSNRPTRAAATKRSAKDASDESNEDEIEYDDKSDEDVSPRKKARGAPARAAADDEDDEGEEMDASEEVEA”, the “soluble on expression in E. coli” value is listed as “not soluble”.

Take “MAHHHHHHMDTEAIKETAIREVCELSKTLKGTPFAITQRWKHIEALISTFERLLRRLELINLLCCEDEDSVSILKLYTQSQIASLEVLMKALMERGPNAAAFAAYAAGRLDEFVAVFTQSVGKTPRTNACVIADSGMRRWDQAAANGCEHNVVGNAAQNFLDLEVLLKTTLLTRGNQKGESKQCPLTKSDLSGYATVDDAPDRIKWAGGLLTVHKMYGWKEDGWSTNGRNVEFIKEAAEQFKEIKKVLEKQLPNGLDSIDALNAFLKREEPDAMMKDAIKTHQGWEEEKDDKTIIEKIKEIFGIGEPCAKIEFIETLIRTNVSARESGCTKQIDLFQLTTRQMEEVKERRLDQLRKTKTEAENYPRDMAKLSALKTNTNTKQGEYGECQFLCKRYKNAKAENEATDAAPNSPAAARKCRGKTENDCKDECKWDGNVCKNSDETSDYSRVCYSPLFPVLLLSLF”: the “soluble on expression in E. coli” value is “not soluble”.

As for “VADSASTVTNEFSADHPFIYVIRHVDGKILFVGRYSSPTTN”, the “soluble on expression in E. coli” value is “soluble”.

As for “MAHHHHHHMFSLSDTQLGISPMRQFSPSLFRQNKVAEKYRATQGTGIGPQYHQLSDGRLVRPGTSHTKLLPMLEPGETVDWEKLPSYYHWYPKEELHDYIENTTWREIKGRPTGEPLEKRLRKAITGGTFEKDEAPAPDLMPWNSATIPITKFPHERNDEEIIVVDPKTGRIIGMERETYERWKRMMEERRAGLPESDPVEYDQERYVTNKDGVVFDLSKMKYRPIFEGRWNPRRQQSTGRTNPIMT”, the “soluble on expression in E. coli” value is on record as “soluble”.
